Patent publication US20210032343A1 (BEIJING HANMI PHARMACEUTICAL, published 2021)

Molecular target: recombinant human PD-1 (product No. 10377-H08H, Beijing Yiqiao Shenzhou) (human, UniProt Q15116 25-167)
Assay: ELISA, recombinant human PD-1 coated at 1 ug/mL, control antibody, anti-human IgG-HRP detection
Procedure: The coating concentration was 1 μg/mL. The coating amount was 100 μL per well, and the coating was performed at 4° C. overnight. PBST washing was performed five times. The result was sealed at 300 μL/well using PBST containing 1% BSA, and subjected to incubation for 1 hour at 25° C. PBST washing was performed five times. […] PBST washing was performed five times. Subsequently, 100 μL of the horseradish peroxidase-labeled anti-human IgG antibody (product No. AP309P, available from Chemicon) diluted at 1:2,000 in PBST containing 1% BSA was then added to each well, and the cells were incubated for 1 hour at 25° C. PBST washing was performed five times. 100 μL of the colorimetric substrate TMB was added to each well, and color development was allowed to occur for 10 minutes at room temperature. Color development was stopped by adding 100 μL of 1 M H₂SO₄ to each well. The absorbance at 450 nm was read on a microplate reader.

Chain of recombinant human PD-1 (product No. 10377-H08H, Beijing Yiqiao Shenzhou) (Q15116 25-167 limits assumed): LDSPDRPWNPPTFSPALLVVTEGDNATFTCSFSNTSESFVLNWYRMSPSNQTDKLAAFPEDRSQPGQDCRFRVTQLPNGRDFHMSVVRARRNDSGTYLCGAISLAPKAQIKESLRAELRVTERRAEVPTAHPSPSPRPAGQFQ

B1: PD-1 monoclonal antibody (antibody, V domains shown)
VH: QVQLVQSGAEVKKPGSSVKVSCKASGGTFSSTAISWVRQAPGQGLEWMGGIWPSFGTASYAQKFQGRVTITADESTSTAYMELSSLRSEDTAVYYCARAEYSSTGIFDYWGQGTLVTVSS
VL: DIQMTQSPSSVSASVGDRVTITCRASQGISSWLAWYQQKPGKAPKLLISAASSLQSGVPSRFSGSGSGTDFTLTISSLQPEDFATYYCQQANHLPFTFGGGTKVEIK
notes: also called bivalent monoclonal antibody (anti-PD-1)
  binding result: binds
